Format in all cases: binding
The target in one test is IgG4 (Homo sapiens, UniProt P01861). Also on record: all human subtypes derived from myeloma patients; purchased Calbiochem 400126; host or cells: myeloma patients. As to the method: (§1) In addition, the following targets, all unfractionated IgGs, were also evaluated with selected immobilized peptides for species specificity characterization in a similar format: human IgG, goat IgG, bovine IgG, and mouse IgG (Sigma, product nos. I4506, I5256, I5506, and I15381, respectively). In addition, 10 μl aliquots of hydrolyzed NHS-activated Sepharose 4 Fast Flow (Amersham Pharmacia Biotech, product no. 17-0906-01) and immobilized recombinant Protein A (RepliGen Corp., product no. IPA-400) were also assayed as negative and positive controls. IgG targets were diluted into 10 mM phosphate buffer containing 150 mM NaCl and 0.01% Tween 20, pH 7.2 (PBST) or 50 mM Tris buffer containing, 150 mM NaCl and 0.01% Tween-20, pH 7.5 (TBST). Batch (static) binding and elution studies were conducted in a 96-well assay filterplate (Millipore MultiScreen-HV, with 0.45 μm Durapore membrane, product no. MAHVN4510). The target was allowed to incubate with the resin for 1-1.5 hours with shaking at room temperature. Unbound target was collected by centrifugation of samples from the assay plate directly into a low-UV absorbing 96-well collection plate (Costar, product no. 3635 or Greiner, product no. 655801). The unbound target was then quantitated by reading the absorbance at 280 nm (normalized to 1 cm pathlength, 1.4 mg/ml A280 extinction coefficient) of the collection plate on a microplate spectrophotometer (Molecular Devices Corp., SPECTRAmax PLUS) against a buffer blank.
IgG4, sequence (P01861 1-327 isoform P01861-1): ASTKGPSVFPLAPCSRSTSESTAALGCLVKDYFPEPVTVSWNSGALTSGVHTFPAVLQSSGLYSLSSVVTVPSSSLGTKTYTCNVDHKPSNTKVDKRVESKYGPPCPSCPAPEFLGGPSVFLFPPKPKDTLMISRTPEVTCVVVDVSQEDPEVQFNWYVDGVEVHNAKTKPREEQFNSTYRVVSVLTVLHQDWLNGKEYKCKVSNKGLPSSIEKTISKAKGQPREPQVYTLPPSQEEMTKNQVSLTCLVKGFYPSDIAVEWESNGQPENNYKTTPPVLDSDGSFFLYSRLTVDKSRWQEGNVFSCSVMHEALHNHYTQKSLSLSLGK
(§2) The percentage bound target was determined by subtracting the mass determined as unbound from the corresponding condition's control values (control non-filtered added directly to the collection plate and/or the negative control). The assay plate was washed (3×) with 200 μl of binding buffer by vacuum filtration followed by addition of 100 μl of various elution conditions (e.g.: 0.1 M sodium bicarbonate buffer, pH 8.5 and/or 0.1 M sodium citrate buffer, pH 4.0). After a 30-60 minute incubation with shaking at room temperature, the eluted target was collected by centrifugation of the assay plate into another collection plate and quantitated in a similar manner. Percent elution of total load was then determined to characterize elution recovery efficiency under various conditions. The assay plate was then washed (3×) with 200 μl of binding buffer by vacuum filtration followed by addition of a resin cleaning condition (e.g., 0.1M CAPS buffer (3-[Cyclohexylamino]-1-propane-sulfonic acid), pH 11.5, to regenerate the resin for re-use. Percentage mass balance determination was calculated to be 90-100% on average.

The target in a further test is IgG3 (Homo sapiens, UniProt P01860). Further details: all human subtypes derived from myeloma patients; purchased Calbiochem 400124; host or cells: myeloma patients. As to the method: as §1, §2
IgG3, sequence (P01860 1-377 isoform P01860-1): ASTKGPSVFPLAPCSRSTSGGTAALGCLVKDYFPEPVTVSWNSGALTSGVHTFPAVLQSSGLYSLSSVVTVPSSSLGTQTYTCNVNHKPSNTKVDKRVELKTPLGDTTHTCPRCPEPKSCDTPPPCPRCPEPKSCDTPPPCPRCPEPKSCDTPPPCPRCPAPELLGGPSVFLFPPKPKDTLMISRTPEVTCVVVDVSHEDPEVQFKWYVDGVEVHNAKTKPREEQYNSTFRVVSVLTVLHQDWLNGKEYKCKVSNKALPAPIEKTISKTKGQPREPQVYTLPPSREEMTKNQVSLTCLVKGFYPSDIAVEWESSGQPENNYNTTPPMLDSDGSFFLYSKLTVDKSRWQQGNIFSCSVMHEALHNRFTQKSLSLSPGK
For a further test, the system named is human IgG. As to the method:
as §1, §2

A further test deals with T1, human IgG1 (Homo sapiens, UniProt P01857).
T1 construct: all human subtypes derived from myeloma patients; purchased Calbiochem 400120; host or cells: myeloma patients
T1 sequence (P01857 1-330 isoform P01857-1): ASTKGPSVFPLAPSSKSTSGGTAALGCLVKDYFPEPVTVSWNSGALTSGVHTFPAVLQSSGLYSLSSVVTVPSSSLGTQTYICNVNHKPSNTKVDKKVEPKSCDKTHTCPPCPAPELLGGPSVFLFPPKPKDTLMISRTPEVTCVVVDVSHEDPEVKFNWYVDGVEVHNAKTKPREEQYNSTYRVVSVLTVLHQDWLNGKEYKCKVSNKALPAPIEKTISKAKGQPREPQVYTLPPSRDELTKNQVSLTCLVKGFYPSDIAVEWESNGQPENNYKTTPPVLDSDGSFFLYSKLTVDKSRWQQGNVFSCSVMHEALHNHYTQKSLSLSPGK
The protocol:
as §1, §2

The next test has as its target T2, human IgG2 (Homo sapiens, UniProt P01859).
T2 construct: all human subtypes derived from myeloma patients; purchased Calbiochem 400122; host or cells: myeloma patients
The protocol: as §1, §2

The mark [1] stands for this setting: Table 20, average ligand density 1.9 μmole/ml.
[2] abbreviates: peptide immobilized on NHS activated sepharose 4 fast flow, target ligand density 2.0 μmole/ml, batch filterplate, hIgG4.
[3] abbreviates: peptide immobilized on NHS activated sepharose 4 fast flow, target ligand density 2.0 μmole/ml, batch filterplate, hIgG3.
The mark [4] stands for this setting: peptide immobilized on NHS activated sepharose 4 fast flow, target ligand density 2.0 μmole/ml, batch filterplate, hIgG.
The mark [5] stands for this setting: peptide immobilized on NHS activated sepharose 4 fast flow, target ligand density 2.0 μmole/ml, batch filterplate, hIgG1.
Where [6] appears, read: peptide immobilized on NHS activated sepharose 4 fast flow, target ligand density 2.0 μmole/ml, batch filterplate, hIgG2.

Where two headings read alike, the source gives them in different places. Non-standard residues stand in square brackets, D forms with d. Nle = CCCC[C@H](N)C(=O)O

Experimental findings from patent publication US20030199671A1, “Binding molecules for Fc-region polypeptides” (priority 2001, published 2003) are described below.

T2 sequence (P01859 1-326 isoform P01859-1): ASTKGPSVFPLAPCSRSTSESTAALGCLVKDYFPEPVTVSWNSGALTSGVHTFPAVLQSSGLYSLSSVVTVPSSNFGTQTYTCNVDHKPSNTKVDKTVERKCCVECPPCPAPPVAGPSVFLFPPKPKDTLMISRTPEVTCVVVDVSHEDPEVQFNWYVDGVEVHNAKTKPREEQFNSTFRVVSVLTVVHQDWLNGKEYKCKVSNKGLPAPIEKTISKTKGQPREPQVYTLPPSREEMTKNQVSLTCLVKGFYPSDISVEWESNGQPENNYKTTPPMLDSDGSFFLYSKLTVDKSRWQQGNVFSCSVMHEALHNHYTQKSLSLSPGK

“Ac-ACVYTTWGELIWCDNHEPGPEGGGK-NH2 (not fully specified (bridges); printed as Ac-ACVYTTWGELIWCDNHEPGPEGGGK-NH2; cysteine pairing not given here) [DX1064]”: the “Batch Binding (% Capture of Total Load) hIgG4” value with IgG4 (setting [1]) turned out to be 39%. In the test with IgG3 (setting [1]), the “Batch Binding (% Capture of Total Load) hIgG3” value was determined as 0%. Moreover, the “Batch Binding (% Capture of Total Load) hIgG” value in the test with human IgG (setting [1]) was determined as 73%. Moreover, the “Batch Binding (% Capture of Total Load) hIgG1” value in the test with human IgG1 (setting [1]) was determined as 70%. The “Batch Binding (% Capture of Total Load) hIgG2” value with human IgG2 (setting [1]) is listed as 63%.
As to “Ac-ECSRDWSGALVWCAGHEPGPEGGGK-NH2 (not fully specified (bridges); printed as Ac-ECSRDWSGALVWCAGHEPGPEGGGK-NH2; cysteine pairing not given here) [DX1144]”, the “Batch Binding (% Capture of Total Load) hIgG4” value in the test with IgG4 (setting [2]) was 61%. In addition, the “Batch Binding (% Capture of Total Load) hIgG3” value in the test with IgG3 (setting [3]) turned out to be 0%. Further, the “Batch Binding (% Capture of Total Load) hIgG” value in the test on human IgG (setting [4]) was 81%. Moreover, the “Batch Binding (% Capture of Total Load) hIgG1” value in the test with human IgG1 (setting [5]) came out at 88%. In the test with human IgG2 (setting [6]), the “Batch Binding (% Capture of Total Load) hIgG2” value amounted to 84%.
Consider “Ac-DHMCVYTTWGELIWCDNHEPGPEGGGK-NH2 (not fully specified (bridges); printed as Ac-DHMCVYTTWGELIWCDNHEPGPEGGGK-NH2; cysteine pairing not given here) [DX1062]”, for which the “Batch Binding (% Capture of Total Load) hIgG4” value in the test with IgG4 (setting [1]) was 49%. In the test with IgG3 (setting [1]), the “Batch Binding (% Capture of Total Load) hIgG3” value is on record as 0%. In addition, the “Batch Binding (% Capture of Total Load) hIgG” value in the test on human IgG (setting [1]) was 73%. Besides, the “Batch Binding (% Capture of Total Load) hIgG1” value with human IgG1 (setting [1]) stood at 73%. For the same substance, the “Batch Binding (% Capture of Total Load) hIgG2” value with human IgG2 (setting [1]) amounted to 63%.
For “Ac-ERACSRDWSGALVWCAGHEPGPEGGGK-NH2 (not fully specified (bridges); printed as Ac-ERACSRDWSGALVWCAGHEPGPEGGGK-NH2; cysteine pairing not given here) [DX1141]”, the “Batch Binding (% Capture of Total Load) hIgG4” value with IgG4 (setting [2]) is 2%. The “Batch Binding (% Capture of Total Load) hIgG3” value with IgG3 (setting [3]) is 0%. Moreover, the “Batch Binding (% Capture of Total Load) hIgG” value in the test on human IgG (setting [4]) was found to be 21%. Further, in the test with human IgG1 (setting [5]), the “Batch Binding (% Capture of Total Load) hIgG1” value is 17%. In the test with human IgG2 (setting [6]), the “Batch Binding (% Capture of Total Load) hIgG2” value was 9%.
Take “Ac-GDWGECTVTSYGELIWCGGLEPGPEGGGK-NH2 (not fully specified (bridges); printed as Ac-GDWGECTVTSYGELIWCGGLEPGPEGGGK-NH2; cysteine pairing not given here) [DX1070]”: the “hIgG4 elution pH 3.0 (% of Total Load)” value with IgG4 (Table 13) is on record as 14%. Moreover, the “% IgG Capture - Batch Binding, Human IgG” value in the test on human IgG (Table 14, average ligand density 1.8 μM/ml) was determined as 91%. Moreover, in the test with human IgG1 (Table 13), the “hIgG1 elution pH 3.0 (% of Total Load)” value was 22%. The “hIgG2 elution pH 3.0 (% of Total Load)” value with human IgG2 (Table 13) was 42%.
As to “Ac-VCSRDWSGALVWCAGHEPGPEGGGK-NH2 (not fully specified (bridges); printed as Ac-VCSRDWSGALVWCAGHEPGPEGGGK-NH2; cysteine pairing not given here) [DX1145]”, in the test with IgG4 (setting [2]), the “Batch Binding (% Capture of Total Load) hIgG4” value is 42%. Further, in the test with IgG3 (setting [3]), the “Batch Binding (% Capture of Total Load) hIgG3” value was 0%. Also, the “Batch Binding (% Capture of Total Load) hIgG” value with human IgG (setting [4]) amounted to 66%. Moreover, the “Batch Binding (% Capture of Total Load) hIgG1” value with human IgG1 (setting [5]) was found to be 74%. In the test with human IgG2 (setting [6]), the “Batch Binding (% Capture of Total Load) hIgG2” value came out at 63%.
For “Ac-VCVYTTWGELIWCDNHEPGPEGGGK-NH2 (not fully specified (bridges); printed as Ac-VCVYTTWGELIWCDNHEPGPEGGGK-NH2; cysteine pairing not given here) [DX1067]”, the “Batch Binding (% Capture of Total Load) hIgG4” value in the test with IgG4 (setting [1]) turned out to be 25%. In addition, the “Batch Binding (% Capture of Total Load) hIgG3” value with IgG3 (setting [1]) was determined as 0%. In addition, in the test on human IgG (setting [1]), the “Batch Binding (% Capture of Total Load) hIgG” value was 44%. Also, the “Batch Binding (% Capture of Total Load) hIgG1” value in the test with human IgG1 (setting [1]) was found to be 33%. For the same substance, the “Batch Binding (% Capture of Total Load) hIgG2” value with human IgG2 (setting [1]) is on record as 28%.
Consider “Ac-TCSRDWSGALVWCAGHEPGPEGGGK-NH2 (not fully specified (bridges); printed as Ac-TCSRDWSGALVWCAGHEPGPEGGGK-NH2; cysteine pairing not given here) [DX1143]”, for which, in the test with IgG4 (setting [2]), the “Batch Binding (% Capture of Total Load) hIgG4” value was 55%. Moreover, the “Batch Binding (% Capture of Total Load) hIgG3” value with IgG3 (setting [3]) was determined as 0%. Besides, the “Batch Binding (% Capture of Total Load) hIgG” value in the test with human IgG (setting [4]) was 81%. Also, in the test with human IgG1 (setting [5]), the “Batch Binding (% Capture of Total Load) hIgG1” value is listed as 88%. The “Batch Binding (% Capture of Total Load) hIgG2” value with human IgG2 (setting [6]) stood at 83%.
Take “Ac-CVYTTWGELIWCDNHEPGPEGGGK-NH2 (not fully specified (bridges); printed as Ac-CVYTTWGELIWCDNHEPGPEGGGK-NH2; cysteine pairing not given here) [DX1069]”: in the test with IgG4 (setting [1]), the “Batch Binding (% Capture of Total Load) hIgG4” value was found to be 51%. In addition, the “Batch Binding (% Capture of Total Load) hIgG3” value with IgG3 (setting [1]) is listed as 2%. The “Batch Binding (% Capture of Total Load) hIgG” value in the test on human IgG (setting [1]) amounted to 74%. The “Binding properties / profile relative to parent peptide” value in the test on human IgG (batch filterplate, human IgG and subtypes) is “almost identical to those of DX249”. In the test with human IgG1 (setting [1]), the “Batch Binding (% Capture of Total Load) hIgG1” value is 77%. Also, in the test with human IgG2 (setting [1]), the “Batch Binding (% Capture of Total Load) hIgG2” value was determined as 68%.
With “Ac-ACSRDWSGALVWCAGHEPGPEGGGK-NH2 (not fully specified (bridges); printed as Ac-ACSRDWSGALVWCAGHEPGPEGGGK-NH2; cysteine pairing not given here) [DX1142]”, in the test with IgG4 (setting [2]), the “Batch Binding (% Capture of Total Load) hIgG4” value was 39%. Besides, in the test with IgG3 (setting [3]), the “Batch Binding (% Capture of Total Load) hIgG3” value is 0%. Further, the “Batch Binding (% Capture of Total Load) hIgG” value with human IgG (setting [4]) was 57%. Further, the “Batch Binding (% Capture of Total Load) hIgG1” value with human IgG1 (setting [5]) is reported as 66%. Further, the “Batch Binding (% Capture of Total Load) hIgG2” value with human IgG2 (setting [6]) amounted to 55%.
As for “Ac-EHMCVYTTWGELIWCDNHEPGPEGGGK-NH2 (not fully specified (bridges); printed as Ac-EHMCVYTTWGELIWCDNHEPGPEGGGK-NH2; cysteine pairing not given here) [DX1063]”, the “Batch Binding (% Capture of Total Load) hIgG4” value with IgG4 (setting [1]) is given as 45%. In addition, in the test with IgG3 (setting [1]), the “Batch Binding (% Capture of Total Load) hIgG3” value is 0%. Also, in the test with human IgG (setting [1]), the “Batch Binding (% Capture of Total Load) hIgG” value is given as 71%. Also, the “Batch Binding (% Capture of Total Load) hIgG1” value with human IgG1 (setting [1]) stood at 73%. Besides, the “Batch Binding (% Capture of Total Load) hIgG2” value in the test with human IgG2 (setting [1]) was found to be 63%.
The like results for “Ac-[Nle]CVYTTWGELIWCDNHEPGPEGGGK-NH2 (not fully specified (bridges); printed as Ac-[Nle]CVYTTWGELIWCDNHEPGPEGGGK-NH2; cysteine pairing not given here) [DX1068]” were, in that order, 21%, 0%, 36%, 33% and 25%.
